Reference: IntAct's records for PubMed 21037566

Target: lef_bacan lef (UniProt P15917)

Protective antigen (Bacillus anthracis) (from UniProt P13423) H240A
effect of a mutation on the interaction: disrupting interaction

Protective antigen (Bacillus anthracis) (from UniProt P13423) L216A
effect of a mutation on the interaction: disrupting interaction
